B1: PDE9A: human host interactor protein, Gene ID 5152, expressed from transfected ORF vector (protein)
chain: MGSGSSSYRPKAIYLDIDGRIQKVIFSKYCNSSDIMDLFCIATGLPRNTTISLLTTDDAMVSIDPTMPANSERTPYKVRPVAIKQLSAGVEDKRTTSRGQSAERPLRDRRVVGLEQPRREGAFESGQVEPRPREPQGCYQEGQRIPPEREELIQSVLAQVAEQFSRAFKINELKAEVANHLAVLEKRVELEGLKVVEIEKCKSDIKKMREELAARSSRTNCPCKYSFLDNHKKLTPRRDVPTYPKYLLSPETIEALRKPTFDVWLWEPNEMLSCLEHMYHDLGLVRDFSINPVTLRRWLFCVHDNYRNNPFHNFRHCFCVAQMMYSMVWLCSLQEKFSQTDILILMTAAICHDLDHPGYNNTYQINARTELAVRYNDISPLENHHCAVAFQILAEPECNIFSNIPPDGFKQIRQGMITLILATDMARHAEIMDSFKEKMENFDYSNEEHMTLLKMILIKCCDISNEVRPMEVAEPWVDCLLEEYFMQSDREKSEGLPVAPFMDRDKVTKATAQIGFIKFVLIPMFETVTKLFPMVEEIMLQPLWESRDRYEELKRIDDAMKELQKKTDSLTSGATEKSRERSRDVKNSEGDCA
B2: SP100: human host interactor protein, Gene ID 6672, expressed from transfected ORF vector (protein)
chain: MAGGGGDLSTRRLNECISPVANEMNHLPAHSHDLQRMFTEDQGVDDRLLYDIVFKHFKRNKVEISNAIKKTFPFLEGLRDRDLITNKMFEDSQDSCRNLVPVQRVVYNVLSELEKTFNLPVLEALFSDVNMQEYPDLIHIYKGFENVIHDKLPLQESEEEEREERSGLQLSLEQGTGENSFRSLTWPPSGSPSHAGTTPPENGLSEHPCETEQINAKRKDTTSDKDDSLGSQQTNEQCAQKAEPTESCEQIAVQVNNGDAGREMPCPLPCDEESPEAELHNHGIQINSCSVRLVDIKKEKPFSNSKVECQAQARTHHNQASDIIVISSEDSEGSTDVDEPLEVFISAPRSEPVINNDNPLESNDEKEGQEATCSRPQIVPEPMDFRKLSTFRESFKKRVIGQDHDFSESSEEEAPAEASSGALRSKHGEKAPMTSRSTSTWRIPSRKRRFSSSDFSDLSNGEELQETCSSSLRRGSGSQPQEPENKKCSCVMCFPKGVPRSQEARTESSQASDMMDTMDVENNSTLEKHSGKRRKKRRHRSKVNGLQRGRKKDRPRKHLTLNNKVQKKRWQQRGRKANTRPLKRRRKRGPRIPKDENINFKQSELPVTCGEVKGTLYKERFKQGTSKKCIQSEDKKWFTPREFEIEGDRGASKNWKLSIRCGGYTLKVLMENKFLPEPPSTRKKRILESHNNTLVDPCEEHKKKNPDASVKFSEFLKKCSETWKTIFAKEKGKFEDMAKADKAHYEREMKTYIPPKGEKKKKFKDPNAPKRPPLAFFLFCSEYRPKIKGEHPGLSIDDVVKKLAGMWNNTAAADKQFYEKKAAKLKEKYKKDIAAYRAKGKPNSAKKRVVKAEKSKKKKEEEEDEEDEQEEENEEDDDK
B3: SPAG5: human host interactor protein, Gene ID 10615, expressed from transfected ORF vector (protein)
chain: MWRVKKLSLSLSPSPQTGKPSMRTPLRELTLQPGALTNSGKRSPACSSLTPSLCKLGLQEGSNNSSPVDFVNNKRTDLSSEHFSHSSKWLETCQHESDEQPLDPIPQISSTPKTSEEAVDPLGNYMVKTIVLVPSPLGQQQDMIFEARLDTMAETNSISLNGPLRTDDLVREEVAPCMGDRFSEVAAVSEKPIFQESPSHLLEESPPNPCSEQLHCSKESLSSRTEAVREDLVPSESNAFLPSSVLWLSPSTALAADFRVNHVDPEEEIVEHGAMEEREMRFPTHPKESETEDQALVSSVEDILSTCLTPNLVEMESQEAPGPAVEDVGRILGSDTESWMSPLAWLEKGVNTSVMLENLRQSLSLPSMLRDAAIGTTPFSTCSVGTWFTPSAPQEKSTNTSQTGLVGTKHSTSETEQLLCGRPPDLTALSRHDLEDNLLSSLVILEVLSRQLRDWKSQLAVPHPETQDSSTQTDTSHSGITNKLQHLKESHEMGQALQQARNVMQSWVLISKELISLLHLSLLHLEEDKTTVSQESRRAETLVCCCFDLLKKLRAKLQSLKAEREEARHREEMALRGKDAAEIVLEAFCAHASQRISQLEQDLASMREFRGLLKDAQTQLVGLHAKQEELVQQTVSLTSTLQQDWRSMQLDYTTWTALLSRSRQLTEKLTVKSQQALQERDVAIEEKQEVSRVLEQVSAQLEECKGQTEQLELENSRLATDLRAQLQILANMDSQLKELQSQHTHCAQDLAMKDELLCQLTQSNEEQAAQWQKEEMALKHMQAELQQQQAVLAKEVRDLKETLEFADQENQVAHLELGQVECQLKTTLEVLRERSLQCENLKDTVENLTAKLASTIADNQEQDLEKTRQYSQKLGLLTEQLQSLTLFLQTKLKEKTEQETLLLSTACPPTQEHPLPNDRTFLGSILTAVADEEPESTPVPLLGSDKSAFTRVASMVSLQPAETPGMEESLAEMSIMTTELQSLCSLLQESKEEAIRTLQRKICELQARLQAQEEQHQEVQKAKEADIEKLNQALCLRYKNEKELQEVIQQQNEKILEQIDKSGELISLREEVTHLTRSLRRAETETKVLQEALAGQLDSNCQPMATNWIQEKVWLSQEVDKLRVMFLEMKNEKEKLMIKFQSHRNILEENLRRSDKELEKLDDIVQHIYKTLLSIPEVVRGCKELQGLLEFLS
B4: SF3A3: human host interactor protein, Gene ID 10946, expressed from transfected ORF vector (protein)
chain: METILEQQRRYHEEKERLMDVMAKEMLTKKSTLRDQINSDHRTRAMQDRYMEVSGNLRDLYDDKDGLRKEELNAISGPNEFAEFYNRLKQIKEFHRKHPNEICVPMSVEFEELLKARENPSEEAQNLVEFTDEEGYGRYLDLHDCYLKYINLKASEKLDYITYLSIFDQLFDIPKERKNAEYKRYLEMLLEYLQDYTDRVKPLQDQNELFGKIQAEFEKKWENGTFPGWPKETSSALTHAGAHLDLSAFSSWEELASLGLDRLKSALLALGLKCGGTLEERAQRLFSTKGKSLESLDTSLFAKNPKSKGTKRDTERNKDIAFLEAQIYEYVEILGEQRHLTHENVQRKQARTGEEREEEEEEQISESESEDEENEIIYNPKNLPLGWDGKPIPYWLYKLHGLNINYNCEICGNYTYRGPKAFQRHFAEWRHAHGMRCLGIPNTAHFANVTQIEDAVSLWAKLKLQKASERWQPDTEEEYEDSSGNVVNKKTYEDLKRQGLL
B5: PIAS2: human host interactor protein, Gene ID 9063, expressed from transfected ORF vector (protein)
chain: MADFEELRNMVSSFRVSELQVLLGFAGRNKSGRKHDLLMRALHLLKSGCSPAVQIKIRELYRRRYPRTLEGLSDLSTIKSSVFSLDGGSSPVEPDLAVAGIHSLPSTSVTPHSPSSPVGSVLLQDTKPTFEMQQPSPPIPPVHPDVQLKNLPFYDVLDVLIKPTSLVQSSIQRFQEKFFIFALTPQQVREICISRDFLPGGRRDYTVQVQLRLCLAETSCPQEDNYPNSLCIKVNGKLFPLPGYAPPPKNGIEQKRPGRPLNITSLVRLSSAVPNQISISWASEIGKNYSMSVYLVRQLTSAMLLQRLKMKGIRNPDHSRALIKEKLTADPDSEIATTSLRVSLMCPLGKMRLTIPCRAVTCTHLQCFDAALYLQMNEKKPTWICPVCDKKAAYESLILDGLFMEILNDCSDVDEIKFQEDGSWCPMRPKKEAMKVSSQPCTKIESSSVLSKPCSVTVASEASKKKVDVIDLTIESSSDEEEDPPAKRKCIFMSETQSSPTKGVLMYQPSSVRVPSVTSVDPAAIPPSLTDYSVPFHHTPISSMSSDLPGLDFLSLIPVDPQYCPPMFLDSLTSPLTASSTSVTTTSSHESSTHVSSSSSRSETGVITSSGSNIPDIISLD

test system: HIV-1 LTR promoter transactivation by HIV-1 Tat; assay: Transactivation assay, HIV-1 LTR luciferase reporter with HIV-1 Tat; assay type: cell-based; settings: HEK293 cells co-transfected with pHIV1LTR-Luc, HIV-1 Tat and the human ORF; relative luciferase activity 24 h post-transfection; positive if >=2 or <=0.5 and p<0.05
Description: The plasmids pHIV1LTR-Luc or pHTLV1LTR-Luc containing a luciferase reporter gene under the control of the HIV-1 or HTLV-1 LTR promoters and plasmids expressing either HIV-1 Tat or HTLV-1 Tax and each human ORF found to interact with viral proteins were transfected into 10^4 HEK293 cells using the calcium phosphate method. Twenty-four hours post-transfection, cells were washed three times with PBS, lysed and luciferase activities determined from two independent transfection experiments in triplicate. We computed a paired t-test to assess the difference of the means between samples with and without the human interactor. For a trial to be considered positive, the relative luciferase activities has to be >=2 or <=0.5, and the p-value of the t-test<0.05.
Many HIV/HTLV-human interactions in our data set (130/212) involved the retroviral transactivator proteins HTLV-1 Tax (57/212), HTLV-2 Tax2 (49/212), HIV-1 Tat (10/212) and HIV-2 Tat (14/212). Human proteins interacting with viral transactivators likely influence Tat or Tax transactivation. Expression vectors encoding human ORFs and HIV-1 Tat or HTLV-1 Tax proteins were tested in a transactivation reporter assay against reporter plasmids harboring HIV-1 or HTLV-1 viral promoter sequences cloned upstream of the luciferase reporter gene. In the controls Tat or Tax respectively activated HIV or HTLV LTR-directed gene expression. Co-transfection of interacting human ORFs identified 71 proteins (54% of the 131 human targets in our data set) that regulated HIV (26.7% of targets), HTLV (37.4% of targets) or both (9.9% of targets) LTR promoter activation by Tat or Tax (see Tables 7 and 8; Table 13 below containing quantitative data on the regulation of transactivation). Wherever not expressly specified, constructs used herein were generally made by sub-cloning entry clones from the ORFeome V3.1 into suitable destination vectors.

Molecule | HIV_LTR transactiv.
B1 | 0.28 fold change
B2 | 3.69 fold change
B3 | 0.16 fold change
B4 | 0.49 fold change
B5 | 0.42 fold change

Source: patent US20120090043A1, “TARGETS FOR RETROVIRUS ASSOCIATED DISEASES” (priority 2009, published 2012)
